Data from the supplement of paper PMC6757056.
± gives the standard deviation of the averaged measurements.

B1: library; a variant is named by its letters at N, in order (parent)
chain: GCUGUCACCGAGAAACUGUGAAGUAUAUCUUAAACCUGGGCACUUAAAAGAUAUAUGGAGUUAGUAGUGCAACCUGCUCGGUCUGAUGAGUCCNNNNNNGGACGAAACAGC

Tests used:
cyclic di-GMP [1] = variants of: B1; test: FACS-Seq fitted mean relative fluorescence mCherry/BFP without ligand (log10 relative fluorescence); HEK293T; ligand: cyclic di-GMP (c-di-GMP-II aptamer); higher = higher reporter protein expression; conditions: ligand present: no
How it was run: (§1)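 Lentivirally transduced HEK293T libraries carried an mCherry reporter with the ribozyme switch and an EF1α-BFP marker. Transduced cells were enriched, then incubated with or without ligand for 48 h and sorted into 6 bins by mCherry/BFP. Genomic DNA from each bin was PCR-amplified, barcoded and sequenced on MiSeq. Fluorescence was the fitted normal mean of log10(mCherry/BFP) bin counts, scaled to five spiked-in control ribozymes.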

cyclic di-GMP [2] = variants of: B1; test: normalized RNA/DNA level without ligand (relative to sTRSVctl = 100) (log10 (% of sTRSVctl)); HEK293T; ligand: cyclic di-GMP (c-di-GMP-II aptamer); higher = less ribozyme self-cleavage, higher mRNA level; conditions: reporter: mCherry (pCS4076), ligand present: no
How it was run: (§2)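 HEK293T cells received ligand, where used, 1 h before being transfected with 4 µg per 6-well well of library plasmids encoding reporter-linked ribozyme switches. After 72 h, RNA was extracted with EDTA and sequenced. RNA level was derived from RNA reads per DNA read, normalized to a spiked-in non-cleaving sequence or the top sequences, then scaled and log-transformed. Values were ×100 then log10, the top set was 25 sequences, and the minimum was 100 DNA reads.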

cyclic di-GMP [3] = variants of: B1; test: FACS-Seq fitted mean relative fluorescence mCherry/BFP with ligand (log10 relative fluorescence); HEK293T; ligand: cyclic di-GMP (c-di-GMP-II aptamer); ligand concentration (+) FACS-Seq: 1 mM; higher = higher reporter protein expression; conditions: ligand present: yes
How it was run: as §1

cyclic di-GMP [4] = variants of: B1; test: normalized RNA/DNA level with ligand (relative to sTRSVctl = 100) (log10 (% of sTRSVctl)); HEK293T; ligand: cyclic di-GMP (c-di-GMP-II aptamer); ligand concentration (+) RNA-Seq: 1 mM; higher = less ribozyme self-cleavage, higher mRNA level; conditions: reporter: mCherry (pCS4076), ligand present: yes
How it was run: as §2

Variant | FACS-Seq fitted mean (log10) (cyclic di-GMP [1]) | normalized RNA/DNA level without ligand (log10) (cyclic di-GMP [2]) | FACS-Seq fitted mean (log10) (cyclic di-GMP [3]) | normalized RNA/DNA level with ligand (log10) (cyclic di-GMP [4])
GCUGUCACCGAGAAACUGUGAAGUAUAUCUUAAACCUGGGCACUUAAAAGAUAUAUGGAGUUAGUAGUGCAACCUGCUCGGUCUGAUGAGUCCAUUCAGGGACGAAACAGC [AUUCAG] | -0.308 ± 0.062 | 1.59 ± 0.026 | -0.0248 ± 0.0054 | 1.74 ± 0.1
GCUGUCACCGAGAAACUGUGAAGUAUAUCUUAAACCUGGGCACUUAAAAGAUAUAUGGAGUUAGUAGUGCAACCUGCUCGGUCUGAUGAGUCCCGCUAAGGACGAAACAGC [CGCUAA] | -0.647 ± 0.045 | 1.22 ± 0.066 | -0.386 ± 0.093 | 1.37 ± 0.059
GCUGUCACCGAGAAACUGUGAAGUAUAUCUUAAACCUGGGCACUUAAAAGAUAUAUGGAGUUAGUAGUGCAACCUGCUCGGUCUGAUGAGUCCACUUUUGGACGAAACAGC [ACUUUU] | -0.0638 ± 0.052 | 1.6 ± 0.053 | 0.272 ± 0.091 | 1.8 ± 0.095
GCUGUCACCGAGAAACUGUGAAGUAUAUCUUAAACCUGGGCACUUAAAAGAUAUAUGGAGUUAGUAGUGCAACCUGCUCGGUCUGAUGAGUCCGCCACCGGACGAAACAGC [GCCACC] | -0.0159 ± 0.27 | 1.682 ± 0.011 | 0.0347 ± 0.1 | 1.84 ± 0.095
GCUGUCACCGAGAAACUGUGAAGUAUAUCUUAAACCUGGGCACUUAAAAGAUAUAUGGAGUUAGUAGUGCAACCUGCUCGGUCUGAUGAGUCCCGGAGCGGACGAAACAGC [CGGAGC] | 0.169 ± 0.11 | 1.61 ± 0.052 | 0.426 ± 0.022 | 1.79 ± 0.065
GCUGUCACCGAGAAACUGUGAAGUAUAUCUUAAACCUGGGCACUUAAAAGAUAUAUGGAGUUAGUAGUGCAACCUGCUCGGUCUGAUGAGUCCCACAUUGGACGAAACAGC [CACAUU] | -0.323 ± 0.046 | 1.58 ± 0.025 | -0.0216 ± 0.035 | 1.7 ± 0.1
GCUGUCACCGAGAAACUGUGAAGUAUAUCUUAAACCUGGGCACUUAAAAGAUAUAUGGAGUUAGUAGUGCAACCUGCUCGGUCUGAUGAGUCCCAAAACGGACGAAACAGC [CAAAAC] | -0.495 ± 0.03 | 1.58 ± 0.055 | -0.278 ± 0.08 | 1.77 ± 0.14
GCUGUCACCGAGAAACUGUGAAGUAUAUCUUAAACCUGGGCACUUAAAAGAUAUAUGGAGUUAGUAGUGCAACCUGCUCGGUCUGAUGAGUCCCUAGACGGACGAAACAGC [CUAGAC] | -0.239 ± 0.047 | 1.67 ± 0.053 | -0.0103 ± 0.011 | 1.81 ± 0.093
GCUGUCACCGAGAAACUGUGAAGUAUAUCUUAAACCUGGGCACUUAAAAGAUAUAUGGAGUUAGUAGUGCAACCUGCUCGGUCUGAUGAGUCCCGGUUAGGACGAAACAGC [CGGUUA] | -0.67 ± 0.04 | 1.27 ± 0.12 | -0.411 ± 0.028 | 1.43 ± 0.091
GCUGUCACCGAGAAACUGUGAAGUAUAUCUUAAACCUGGGCACUUAAAAGAUAUAUGGAGUUAGUAGUGCAACCUGCUCGGUCUGAUGAGUCCACUCUUGGACGAAACAGC [ACUCUU] | -0.426 ± 0.095 | 1.636 ± 0.0073 | -0.112 ± 0.0059 | 1.83 ± 0.11
GCUGUCACCGAGAAACUGUGAAGUAUAUCUUAAACCUGGGCACUUAAAAGAUAUAUGGAGUUAGUAGUGCAACCUGCUCGGUCUGAUGAGUCCCAUGACGGACGAAACAGC [CAUGAC] | -0.0513 ± 0.12 | 1.63 ± 0.033 | 0.217 ± 0.061 | 1.79 ± 0.13
GCUGUCACCGAGAAACUGUGAAGUAUAUCUUAAACCUGGGCACUUAAAAGAUAUAUGGAGUUAGUAGUGCAACCUGCUCGGUCUGAUGAGUCCCGAAUUGGACGAAACAGC [CGAAUU] | -0.504 ± 0.036 | 1.38 ± 0.11 | -0.238 ± 0.016 | 1.57 ± 0.088
GCUGUCACCGAGAAACUGUGAAGUAUAUCUUAAACCUGGGCACUUAAAAGAUAUAUGGAGUUAGUAGUGCAACCUGCUCGGUCUGAUGAGUCCGCGUGAGGACGAAACAGC [GCGUGA] | -0.266 ± 0.05 | 1.47 ± 0.068 | -0.000275 ± 0.097 | 1.65 ± 0.088
